Results published in US20150274802A1 (INDIANA UNIVERSITY RESEARCH AND TECHNOLOGY, published 2015).
“And” between values parts separate entries of the source, which are not always exact repeats. Equal entries are not always repeated. Where two headings read alike, the source gives them in different places. Bridge positions count the residues as written; N and C are the ends. Square brackets hold non-standard residues; d marks the D form. Ends that are not written are not given here. I, II: the chains in the order shown. Phe(4-NH2) = Nc1ccc(C[C@H](N)C(=O)O)cc1

B1: IGF-2 AB(YL) (ligand)
chain 1: not shown
chain 2: AYRPSETLCGGELVDTLYLVCGDRGFYFSRPA
modifications: C-terminal amide
B2: IGF-1 A:In B(1-5)-IGF-1 B(YL) (6-30) (ligand)
chain 1: GIVDECCFRSCDLRRLEMYCA
chain 2: FVNQHLCGAELVDALYLVCGDRGFYFNKPT
modifications: ends and bridges not checked; also: C-terminal amide, chain not given here
notes: chimeric B chain
B3: IGF-1 A:B(E10Y16L17)-E31E32 B-COOH (ligand)
chain 1: GIVDECCFRSCDLRRLEMYCA
chain 2: GPETLCGAELVDALYLVCGDRGFYFNKPTEE-OH
modifications: not fully specified (C-terminus); ends and bridges not checked
B4: IGF-1 A:B(H5D10Y16L17) (S═O) DPI (ligand)
chain 1: GIVDECCFRSCDLRRLEMYCA-NH2
chain 2: GPEHLCGADLVDALYLVCGDRGFY-NH2
modifications: ends and bridges not checked; also: (S═O) oxidation, residue not given here
B5: IGF-1 A:B (ligand, human)
chain 1: GIVDECCFRSCDLRRLEMYCA
chain 2: GPETLCGAELVDALQFVCGDRGFYFNKPT
modifications: not fully specified (C-terminus); ends and bridges not checked; also: C-terminal amide, chain not given here
notes: domain: B chain; two-chain form of IGF-1
B6: IGF-1 A:B(E10Y16L17) (ligand)
chain 1: GIVDECCFRSCDLRRLEMYCA-NH2
chain 2: GPETLCGAELVDALYLVCGDRGFYFNKPT-NH2
modifications: cysteine pairing not given here
B7: IGF-1 A:IGF-1 B(1-8)-In (9-17)-IGF-1 B(18-30) (ligand)
chain 1: GIVDECCFRSCDLRRLEMYCA-NH2
chain 2: GPETLCGSHLVEALYLVCGDRGFYFNKPT-NH2
modifications: disulfide I:6-I:11, I:20-II:18, I:7-II:6 (inferred); not fully specified
notes: chimeric B chain
B8: B^1(H5,10Y16L17)25-C^1-A^1(T8N18,21) (ligand)
chain: GPEHLCGAHLVDALYLVCGDRGFYGYGSSSRRAPQTGIVDECCTRSCDLRRLENYCN
B9: IGF1(Y^B16L^B17)(AlaPro)^A-1,0 (ligand)
chain 1: APGIVDECCFRSCDLRRLEMYCA
chain 2: GPETLCGAELVDALYLVCGDRGFYFNKPT
B10: IGF1 (Y^B16L^B17) (p-NH2-F)^A19 amide (ligand)
chain 1: GIVDECCFRSCDLRRLEM[Phe(4-NH2)]CA
chain 2: GPETLCGAELVDALYLVCGDRGFYFNKPT
modifications: not fully specified; ends and bridges not checked
notes: also called IGF1 (Y^B16L^B17) A(p-NH2-F)^19
B11: MIU-57: B1-PEG20K MIU-35 (ligand)
chain: {PEG 20 kDa}-GPEHLCGAHLVDALYLVCGDRGFYGYGSSSRRAPQTGIVDECCHRSCDLRRLENYCN
modifications: ends and bridges not checked
B12: IGF-1 A:B (H5D10Y16L17) DPI (ligand)
chain 1: GIVDECCFRSCDLRRLEMYCA-NH2
chain 2: GPEHLCGADLVDALYLVCGDRGFY-NH2
modifications: cysteine pairing not given here
B13: IGF-1 A (H8 A9 N21):B(H5D10Y16L17) DPI A-COOH (ligand)
chain 1: GIVDECCHASCDLRRLEMYCN-OH
chain 2: GPEHLCGADLVDALYLVCGDRGFY
modifications: not fully specified (C-terminus); ends and bridges not checked
B14: IGF-1 A:B(D10Y16L17) DPI A-COOH (ligand)
chain 1: GIVDECCFRSCDLRRLEMYCA-OH
chain 2: GPETLCGADLVDALYLVCGDRGFY-NH2
modifications: ends and bridges not checked
B15: IGF-1 A (H8 A9 N21):B(H5D10Y16L17A22) (S═O) DPI A-COOH (ligand)
chain 1: GIVDECCHASCDLRRLEMYCN-OH
chain 2: GPEHLCGADLVDALYLVCGDAGFY
modifications: not fully specified (C-terminus); ends and bridges not checked; also: (S═O) oxidation, residue not given here
B16: IGF-1 A (H8 A9 N21):B(H5D10Y16L17 A22) DPI A-COOH (ligand)
chain 1: GIVDECCHASCDLRRLEMYCN-OH
chain 2: GPEHLCGADLVDALYLVCGDAGFY
modifications: not fully specified (C-terminus); ends and bridges not checked
B17: IGF-1 A:B (E10Y16L17) DPI (ligand)
chain 1: GIVDECCFRSCDLRRLEMYCA-NH2
chain 2: GPETLCGAELVDALYLVCGDRGFY-NH2
modifications: cysteine pairing not given here
B18: GE5W-B^1(H5,10Y16L17)25-C^1-A^1(A1H8N18,21) (ligand)
chain: GEEEEEWGPEHLCGAHLVDALYLVCGDRGFYGYGSSSRRAPQTAIVDECCHRSCDLRRLENYCN

Tests used:
human insulin receptor [1] = target: T1, human insulin receptor (human, UniProt P06213 28-1382); experiment: competition SPA, [125I]insulin
T1 construct: whole, on cells; receptor-transfected HEK293 cells in the phosphorylation assay
Experimental: (§1) Non-specifically bound (NSB) radioactivity was measured in the wells with a four-fold concentration excess of “cold” native ligand than the highest concentration in test samples. Total bound radioactivity was detected in the wells with no competitor. Percent specific binding was calculated as following: % Specific Binding=(Bound-NSB/Total bound-NSB)×100. IC50 values were determined by using Origin software (OriginLab, Northampton, Mass.).

human IGF-1 receptor [2] = target: T2, human IGF-1 receptor (human, UniProt P08069 31-1367); experiment: competition SPA, [125I]IGF-1
T2 construct: whole, on cells; transfected HEK293 cells in the phosphorylation assay
Experimental: as §1

human insulin receptor [3] = target: T1, human insulin receptor; experiment: cell-based or functional assay
human IGF-1 receptor [4] = target: T2, human IGF-1 receptor; experiment: cell-based or functional assay
human insulin receptor [5] = target: T1, human insulin receptor; experiment: competition SPA, [125I]insulin; remark: listed apart in the source
human insulin receptor [6] = target: T1, human insulin receptor; experiment: competition SPA, [125I]insulin; remark: listed apart in the source
human IGF-1 receptor [7] = target: T2, human IGF-1 receptor; experiment: cell-based or functional assay; remark: listed apart in the source
human IGF-1 receptor [8] = target: T2, human IGF-1 receptor; experiment: cell-based or functional assay; remark: listed apart in the source
human IGF-1 receptor [9] = target: T2, human IGF-1 receptor; experiment: cell-based or functional assay; remark: listed apart in the source

Binder	IC50 (human insulin receptor [1]) [nM]	% IGF-1 (in test) (human IGF-1 receptor [2]) [%]	% native IGF-1 activity (0.55 nM) (human IGF-1 receptor [2]) [%]	% insulin (in test) (human insulin receptor [1]) [%]	further results
B1	6.81	–	–	–	–
B2	–	3.6	2	–	–
B3	–	3	3.1	–	EC50, receptor phosphorylation (human insulin receptor [3]): 7 nM and 8.52 nM
B4	0.25	–	–	316	–
B5	10.4	–	–	5.8	% native insulin activity (0.6 nM) (human insulin receptor [1]): 5.8%
B6	–	–	–	–	% Insulin (human insulin receptor [3]): 49.2%; EC50, receptor phosphorylation (human insulin receptor [3]): 2.57 nM
B7	1.59	0.3	0.4	19.1	% native insulin activity (0.6 nM) (human insulin receptor [1]): 37.7%
B8	–	–	–	–	% (potency at the receptor, assay not named) (human IGF-1 receptor [4]): 3.7%
B9	–	–	–	–	IC50 (human insulin receptor [5]): 1.93 nM
B10	–	–	–	–	IC50 (human insulin receptor [6]): 1.08 nM
B11	–	–	–	–	% Insulin Activity (in vitro, assay not named) (human IGF-1 receptor [7]): 1.2%; % (potency at the receptor, assay not named) (human IGF-1 receptor [4]): 1.2%; Phosphorylation (EC50), % IGF-1 R (human IGF-1 receptor [8]): 1.2%
B12	0.16	11.2	11.8	479	% IGF (human IGF-1 receptor [9]): 7.1%; EC50, receptor phosphorylation (human IGF-1 receptor [9]): 12.2 nM
B13	–	12.9	13.6	–	EC50, receptor phosphorylation (human insulin receptor [3]): 0.15 nM and 0.25 nM; % IGF (human IGF-1 receptor [9]): 181%; EC50, receptor phosphorylation (human IGF-1 receptor [9]): 0.43 nM
B14	–	7.7	8.1	–	% Insulin (human insulin receptor [3]): 1580%; % IGF (human IGF-1 receptor [9]): 112%; EC50, receptor phosphorylation (human IGF-1 receptor [9]): 0.78 nM
B15	–	–	–	401	–
B16	0.12	2.3	2.4	1170	EC50, receptor phosphorylation (human insulin receptor [3]): 0.35 nM and 0.44 nM; % IGF (human IGF-1 receptor [9]): 7.7%; EC50, receptor phosphorylation (human IGF-1 receptor [9]): 11.3 nM
B17	–	3.3	2.4	–	–
B18	–	–	–	–	% (potency at the receptor, assay not named) (human IGF-1 receptor [4]): 0.5%
